According to article PMC3675498:
Read-outs that look alike come from different tables or passages of the source.

Assays:
Assay in all cases: EMSA
Cse4-Δ90 octamer = Cse4-Δ90 octamer (UniProt P36012;P02309;P04911;P02293 91-229;2-103;2-132;2-131)
[1] = biological target: T1, H3 octamer (H3/H4/H2A/H2B), splits to hemisome (UniProt P61830;P02309;P04911;P02293 2-136;2-103;2-132;2-131)
[2] = biological target: T2, Cse4 octamer (Cse4/H4/H2A/H2B), splits to hemisome (UniProt P36012;P02309;P04911;P02293 1-229;1-103;1-132;1-131)
T2 sequence (P36012 whole entry, chain 1 of 2): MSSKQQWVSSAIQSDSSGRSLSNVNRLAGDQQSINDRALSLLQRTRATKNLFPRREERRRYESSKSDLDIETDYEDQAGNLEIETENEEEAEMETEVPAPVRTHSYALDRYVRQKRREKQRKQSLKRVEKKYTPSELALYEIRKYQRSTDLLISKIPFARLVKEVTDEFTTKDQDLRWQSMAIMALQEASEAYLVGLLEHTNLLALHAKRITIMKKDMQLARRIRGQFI
T2 sequence (P02293 whole entry, chain 4 of 2): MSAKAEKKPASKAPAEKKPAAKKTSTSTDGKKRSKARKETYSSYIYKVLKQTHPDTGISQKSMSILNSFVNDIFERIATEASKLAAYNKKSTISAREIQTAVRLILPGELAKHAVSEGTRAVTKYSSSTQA

[3] = biological target: T2, Cse4 octamer (Cse4/H4/H2A/H2B), splits …; remark: listed apart in the source
[4] = biological target: T1, H3 octamer (H3/H4/H2A/H2B), splits to …; remark: listed apart in the source

T1 sequence (P04911 2-132, chain 3 of 2): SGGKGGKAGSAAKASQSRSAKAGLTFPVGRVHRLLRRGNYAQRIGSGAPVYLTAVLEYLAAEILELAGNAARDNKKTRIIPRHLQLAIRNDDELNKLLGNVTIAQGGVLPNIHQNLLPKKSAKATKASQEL
T1 sequence (P02293 2-131, chain 4 of 2): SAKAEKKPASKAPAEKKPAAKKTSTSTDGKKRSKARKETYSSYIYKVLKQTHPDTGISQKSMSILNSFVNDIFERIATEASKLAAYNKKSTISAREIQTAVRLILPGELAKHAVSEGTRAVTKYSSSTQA
Cse4-Δ90 octamer, sequence (P04911 2-132, stated change not applied, chain 3 of 2): as the sequence (P04911 2-132, chain 3 of 2) above
Cse4-Δ90 octamer, sequence (P02293 2-131, stated change not applied, chain 4 of 2): as the sequence (P02293 2-131, chain 4 of 2) above

B1: α62 (dsDNA)
DNA 1: CCTGCAGATACTACCAAAAGTGTATTTGGAAACTGCTCCATCAAAAGGCATGTTCAGCTGGA
DNA 2: TCCAGCTGAACATGCCTTTTGATGGAGCAGTTTCCAAATACACTTTTGGTAGTATCTGCAGG
B1: binds (Cse4-Δ90 octamer); binds [1]; binds [2].

B2: Cen4 CDEII 78 bp (dsDNA)
DNA 1: CTTATAATCAACTTTTTTAAAAATTTAAAATACTTTTTTATTTTTTATTTTTAAACATAAATGAAATAATTTATTTAT
DNA 2: ATAAATAAATTATTTCATTTATGTTTAAAAATAAAAAATAAAAAAGTATTTTAAATTTTTAAAAAAGTTGATTATAAG
B2: binds [3]; binds [4].
